Results reported in article PMC10478762.

Molecular target: NADPH-dependent imine reductase from Ajellomyces dermatitidis (Ajellomyces dermatitidis)
Assay: crystal structure; three crystal forms, sitting drop, 298 K, protein at 40 mg/ml in 50 mM Tris-HCl pH 7.5, 300 mM NaCl; data set 1 P3(1)21 with NADPH4 (one dimer in the asymmetric unit), data set 2 C2(1) with NADP+ (nine molecules, four and a half dimers), data set 3 P3(1)21 with NADP+ and 2,2-difluoroacetophenone (half-dimer, partner by crystal symmetry)

stoichiometry N: 2
Substance: NADPH-dependent imine reductase from Ajellomyces dermatitidis (enzyme)
